Reference: the supplement of paper PMC10126150
± gives the standard deviation of the averaged measurements.

Tested on: ATP
Experiment: switch fluorescence ratio, 500 uM ATP over buffer (Cy3 cluster intensity, sum of 5 cycles each) (fold (ratio)); higher = stronger signal-on switching upon ATP binding; sequences stand for … in TCGTCGGCAGCGTCAGATGTGTATAAGAGACAGTTTTTTTTTTTTTTTTTTTTTTTTT…TC
Conditions: aptamer strand: ATP DNA aptamer (quencher-CACCTGGGGGAGTATTGCGGAGGAAGG + anchor), 100 nM annealed; ATP concentration: 500 uM
Summary of the method: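 The fluorescence ratio divides summed target-cycle Cy3 intensity by summed buffer-cycle Cy3 intensity for each cluster and is averaged per switch-domain sequence. Cy3-labelled switching-strand clusters on a modified Illumina MiSeq flow-cell were annealed to 100 nM quencher-labelled ATP aptamer, then imaged in selection buffer and again after 15 min with 500 uM ATP at 22 °C. Five such cycles were run, with NaOH stripping and re-annealing between them, and clusters outside 100-1000 RFU were excluded.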
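Further: ATP exposure 15 min at 22 °C before imaging.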

Sequence	switch fluorescence ratio
AATGGCATTA	0.984 ± 0.03
AATGGCATTC	1.03 ± 0.038
AATGGGAATG	1.013 ± 0.0052
AATGGGCCGG	1.013 ± 0.0076
AATGGGCGAG	1.08 ± 0.18
AATGGGCTGA	0.971 ± 0.015
AATGGGGCAA	1.058 ± 0.0077
AATGGGGGAA	0.9881 ± 0.0087
AATGGGGGGT	1.02 ± 0.053
AATGGGGGTG	1.02 ± 0.032
AATGGGTAGT	0.991 ± 0.042
AATGGGTCAT	1.004 ± 0.0013
AATGGTATGT	1.032 ± 0.0088
AATGGTTGGG	0.9989 ± 0.0078
AATGTAAATA	1.01 ± 0.018
AATGTACCCA	1.09 ± 0.017
AATGTAGACG	0.997 ± 0.13
AATGTATCGT	0.978 ± 0.021
AATGTATGTT	1.032 ± 0.0074
AATGTCGAAA	0.998 ± 0.018
AATGTCGACC	1.026 ± 0.0022
AATGTGCCTT	1.056 ± 0.0057
AATGTGGATA	0.984 ± 0.028
AATGTTAAAT	0.979 ± 0.02
AATGTTCAAA	0.995 ± 0.023

Sequence	switch fluorescence ratio
AATGTTTTGA	0.995 ± 0.016
AATGTTTTGG	0.9952 ± 0.0081
AATTAAAAAG	0.975 ± 0.023
AATTAAACGA	1.036 ± 0.0068
AATTAAGGAT	0.975 ± 0.032
AATTAAGGTT	1.04 ± 0.03
AATTACGATT	1.04 ± 0.034
AATTAGATTC	0.994 ± 0.055
AATTAGGGTA	1.03 ± 0.012
AATTAGGTTG	0.967 ± 0.025
AATTATACCC	1.03 ± 0.029
AATTATTTT	0.993 ± 0.02
AATTCAAAAA	1.02 ± 0.021
AATTCACGTT	1.17 ± 0.19
AATTCCGATG	1.29 ± 0.076
AATTCCGGGT	1.02 ± 0.031
AATTCCTGGT	1.04 ± 0.023
AATTCGACGT	0.9963 ± 0.0091
AATTCGCAGT	1.17 ± 0.23
AATTCGTCG	0.9557 ± 0.0045
AATTCGTGCG	0.9872 ± 0.0086
AATTCGTTAC	1.63 ± 0.76
AATTCGTTGG	0.993 ± 0.026
AATTCTTGGG	0.981 ± 0.018
AATTGAAACA	0.9731 ± 0.0068

Sequence	switch fluorescence ratio
AATTGAAGGC	0.972 ± 0.022
AATTGACCGA	1.05 ± 0.013
AATTGATAAA	0.984 ± 0.042
AATTGATGTT	0.972 ± 0.025
AATTGATTGG	0.983 ± 0.032
AATTGCGGCC	0.979 ± 0.045
AATTGCTACC	1.07 ± 0.013
AATTGGAAGG	0.993 ± 0.012
AATTGGACTA	0.976 ± 0.063
AATTGGAGGA	0.996 ± 0.033
AATTGGATCG	1.016 ± 0.0018
AATTGGGCAG	0.9971 ± 0.0038
AATTGGGCTA	0.9994 ± 0.0056
AATTGGGCTT	1.02 ± 0.043
AATTGGGTAA	1.025 ± 0.0083
AATTGGGTTT	0.99 ± 0.023
AATTGGTTAG	0.984 ± 0.054
AATTGTATAG	0.9913 ± 0.0062
AATTGTGCCT	1.08 ± 0.055
AATTGTGGAG	0.966 ± 0.023
AATTGTGTTG	0.98 ± 0.031
AATTGTTGGT	1.01 ± 0.036
AATTTAGAGT	1 ± 0.012
AATTTCACGG	1.03 ± 0.066
AATTTCCGAG	1.17 ± 0.037

Sequence	switch fluorescence ratio
AATTTCCTTT	0.988 ± 0.036
AATTTCGGGA	1.01 ± 0.044
AATTTCGGGT	0.9877 ± 0.0096
AATTTGAAAG	1.017 ± 0.01
AATTTGAGGA	0.972 ± 0.02
AATTTGAGTG	0.977 ± 0.032
AATTTGCGAC	1.05 ± 0.011
AATTTGGACT	1.03 ± 0.027
AATTTGGCCC	1.01 ± 0.031
AATTTGGGTT	1.04 ± 0.053
AATTTGGTAT	1.04 ± 0.011
AATTTGTATT	0.997 ± 0.011
AATTTGTTAG	0.985 ± 0.018
AATTTGTTCT	0.999 ± 0.025
AATTTGTTTC	0.972 ± 0.021
AATTTTAATG	0.997 ± 0.022
AATTTTATCT	0.99 ± 0.014
AATTTTGTTA	0.976 ± 0.043
AATTTTTAGA	0.987 ± 0.034
AATTTTTGTA	0.984 ± 0.018
AATTTTTTCA	0.99 ± 0.018
AATTTTTTCG	0.992 ± 0.025
ACAAACTGGT	1 ± 0.019
ACAAAGAGTC	0.9932 ± 0.0083
ACAAAGGTGT	1.29 ± 0.015

Sequence	switch fluorescence ratio
ACAACGCTTG	1.01 ± 0.032
ACAAGATGGG	1.09 ± 0.082
ACAAGGGGGA	1.02 ± 0.013
ACAAGGTGAT	1.15 ± 0.024
ACAAGTATCA	0.9853 ± 0.0074
ACAATCCGGG	1.01 ± 0.032
ACAATCGGAA	1.025 ± 0.0014
ACAATTGCTA	0.994 ± 0.03
ACACAAGGTC	1.03 ± 0.041
ACACAATCAT	1.02 ± 0.011
ACACATGTAT	1 ± 0.045
ACACCATTAA	1.02 ± 0.03
ACACCCGGCC	1.28 ± 0.068
ACACCCTTAT	1.127 ± 0.011
ACACCGGGGG	1.13 ± 0.17
ACACGGGGGG	1.04 ± 0.022
ACACGGTGAT	1.056 ± 0.0056
ACACGGTGGG	0.975 ± 0.054
ACACGTGCTA	1.01 ± 0.024
ACACGTTACA	1.62 ± 0.082
ACACTCGTCT	1.009 ± 0.0051
ACACTGCCGG	1.04 ± 0.026
ACACTGTATC	1.21 ± 0.038
ACACTTGAAT	0.996 ± 0.027
ACACTTGCGC	1.02 ± 0.038

Sequence	switch fluorescence ratio
ACACTTGTTG	0.963 ± 0.028
ACAGAAGATG	1.003 ± 0.0087
ACAGAAGCTT	1.03 ± 0.015
ACAGAAGTCT	1.03 ± 0.096
ACAGCGGGGT	1 ± 0.021
ACAGGACGGA	1.03 ± 0.013
ACAGGAGAAA	1.01 ± 0.019
ACAGGAGGAG	0.9859 ± 3.2e-05
ACAGGATTGG	1.01 ± 0.017
ACAGGCGTCA	1.02 ± 0.024
ACAGGGAAAG	1.04 ± 0.034
ACAGGGCCGT	1.03 ± 0.033
ACAGGGTAGC	1 ± 0.015
ACAGGGTTTC	0.985 ± 0.015
ACAGGTAAA	1.02 ± 0.028
ACAGGTAGCT	1.06 ± 0.056
ACAGGTAGGT	1 ± 0.055
ACAGGTTGGA	1.03 ± 0.023
ACAGTAGTTA	1.046 ± 0.0065
ACAGTGTGGG	1.05 ± 0.018
ACAGTTAGGT	0.992 ± 0.034
ACAGTTCTAC	1.03 ± 0.031
ACAGTTGGGC	0.9946 ± 0.004
ACATAATGCC	0.933 ± 0.047
ACATACAATT	1.23 ± 0.091

Sequence	switch fluorescence ratio
ACATACTGCA	1.29 ± 0.14
ACATAGATTA	1.03 ± 0.016
ACATATAGGG	1.04 ± 0.021
ACATATTACT	1.13 ± 0.0066
ACATCAAAAT	1.001 ± 0.0015
ACATCACTAA	1.306 ± 0.0079
ACATCAGCGG	0.958 ± 0.031
ACATCCTTCG	1.7 ± 0.25
ACATCGGGTG	1.42 ± 0.59
ACATGAAGGT	1.006 ± 0.0035
ACATGCAAGC	1.64 ± 0.12
ACATGCATTA	1.02 ± 0.026
ACATGCGCGG	0.9999 ± 0.0079
ACATGCGGGG	1.019 ± 0.01
ACATGCTCCC	1.73 ± 0.13
ACATGGTTTT	1.01 ± 0.017
ACATGTTAGT	1.006 ± 0.0028
ACATGTTATA	1 ± 0.049
ACATTAAGTA	1.02 ± 0.037
ACATTAGGGT	1.01 ± 0.012
ACATTATAAT	1.041 ± 0.0056
ACATTCCAAA	1.03 ± 0.013
ACATTCGCGC	1.148 ± 0.0066
ACATTCGGGC	1.02 ± 0.041
ACATTGAAAA	0.996 ± 0.036

Sequence	switch fluorescence ratio
ACATTGGCGA	0.988 ± 0.044
ACATTTAATT	0.983 ± 0.013
ACATTTAGGC	1.048 ± 0.0088
ACATTTGCAG	1.02 ± 0.033
ACATTTTGCG	0.99926 ± 0.00068
ACATTTTGTT	0.972 ± 0.051
ACCAACTCAA	1.18 ± 0.037
ACCAAGAGCG	1.05 ± 0.023
ACCAAGGGCT	0.996 ± 0.034
ACCAAGGGTG	1.135 ± 0.0042
ACCAATAAAC	1.09 ± 0.033
ACCAATCCTG	1 ± 0.013
ACCAATCGGG	0.9917 ± 0.002
ACCACAGAGC	1.04 ± 0.051
ACCACGGTGT	2.12 ± 0.075
ACCACTAAAA	1.04 ± 0.019
ACCAGGGGGT	1.05 ± 0.09
ACCAGGTATG	1.12 ± 0.016
ACCATAGGCT	1.01 ± 0.055
ACCATCGGGA	1.01 ± 0.016
ACCATGCCGG	1 ± 0.077
ACCATGGGAT	1.02 ± 0.015
ACCATGGGCC	1.01 ± 0.018
ACCATGTAAG	0.988 ± 0.035
ACCATTAAAA	1.004 ± 0.0029
